From the Human Domainome abundance scans (Beltran et al. 2025)
± gives the uncertainty stated by the source.

assay: abundance fitness (aPCA) (normalised: wild type 0, dead -1); higher = more abundant; growth selection in yeast, the domain comes from the species named; settings: Homo sapiens

Substance	abundance fitness
Scaffold attachment factor B1 D33S, Q15424	-0.15 ± 0.054
Scaffold attachment factor B1 D33T, Q15424	-0.308 ± 0.077
Scaffold attachment factor B1 D33V, Q15424	-0.493 ± 0.054
Scaffold attachment factor B1 D33W, Q15424	-0.644 ± 0.062
Scaffold attachment factor B1 D33Y, Q15424	-0.813 ± 0.099
Scaffold attachment factor B1 D38A, Q15424	-0.388 ± 0.056
Scaffold attachment factor B1 D38E, Q15424	-0.095 ± 0.059
Scaffold attachment factor B1 D38F, Q15424	-0.874 ± 0.084
Scaffold attachment factor B1 D38G, Q15424	-0.558 ± 0.051
Scaffold attachment factor B1 D38H, Q15424	-0.428 ± 0.089
Scaffold attachment factor B1 D38I, Q15424	-0.767 ± 0.11
Scaffold attachment factor B1 D38L, Q15424	-0.683 ± 0.055
Scaffold attachment factor B1 D38M, Q15424	-0.536 ± 0.071
Scaffold attachment factor B1 D38N, Q15424	-0.414 ± 0.092
Scaffold attachment factor B1 D38P, Q15424	-0.899 ± 0.057
Scaffold attachment factor B1 D38Q, Q15424	-0.107 ± 0.069
Scaffold attachment factor B1 D38R, Q15424	-0.618 ± 0.055
Scaffold attachment factor B1 D38S, Q15424	-0.446 ± 0.059
Scaffold attachment factor B1 D38T, Q15424	-0.307 ± 0.072

Substance	abundance fitness
Scaffold attachment factor B1 D38V, Q15424	-0.629 ± 0.052
Scaffold attachment factor B1 D38W, Q15424	-0.742 ± 0.067
Scaffold attachment factor B1 D38Y, Q15424	-0.913 ± 0.12
Scaffold attachment factor B1 D49A, Q15424	-0.329 ± 0.071
Scaffold attachment factor B1 D49E, Q15424	-0.346 ± 0.077
Scaffold attachment factor B1 D49F, Q15424	-0.762 ± 0.13
Scaffold attachment factor B1 D49G, Q15424	-0.444 ± 0.062
Scaffold attachment factor B1 D49H, Q15424	-0.396 ± 0.097
Scaffold attachment factor B1 D49I, Q15424	-0.514 ± 0.1
Scaffold attachment factor B1 D49K, Q15424	-0.275 ± 0.072
Scaffold attachment factor B1 D49L, Q15424	-0.393 ± 0.061
Scaffold attachment factor B1 D49M, Q15424	-0.464 ± 0.062
Scaffold attachment factor B1 D49N, Q15424	-0.14 ± 0.061
Scaffold attachment factor B1 D49P, Q15424	-0.285 ± 0.068
Scaffold attachment factor B1 D49Q, Q15424	-0.328 ± 0.072
Scaffold attachment factor B1 D49R, Q15424	-0.344 ± 0.052
Scaffold attachment factor B1 D49S, Q15424	-0.219 ± 0.062
Scaffold attachment factor B1 D49T, Q15424	-0.552 ± 0.081
Scaffold attachment factor B1 D49V, Q15424	-0.408 ± 0.057

Substance	abundance fitness
Scaffold attachment factor B1 D49Y, Q15424	-0.5 ± 0.057
Scaffold attachment factor B1 D67C, Q15424	-0.244 ± 0.063
Scaffold attachment factor B1 D67E, Q15424	-0.152 ± 0.089
Scaffold attachment factor B1 D67F, Q15424	-0.293 ± 0.082
Scaffold attachment factor B1 D67G, Q15424	-0.131 ± 0.046
Scaffold attachment factor B1 D67H, Q15424	-0.333 ± 0.051
Scaffold attachment factor B1 D67I, Q15424	-0.257 ± 0.079
Scaffold attachment factor B1 D67K, Q15424	-0.258 ± 0.091
Scaffold attachment factor B1 D67L, Q15424	-0.278 ± 0.052
Scaffold attachment factor B1 D67M, Q15424	-0.167 ± 0.1
Scaffold attachment factor B1 D67N, Q15424	-0.125 ± 0.091
Scaffold attachment factor B1 D67Q, Q15424	-0.123 ± 0.077
Scaffold attachment factor B1 D67R, Q15424	-0.168 ± 0.049
Scaffold attachment factor B1 D67T, Q15424	-0.237 ± 0.071
Scaffold attachment factor B1 D67V, Q15424	-0.19 ± 0.063
Scaffold attachment factor B1 D67W, Q15424	-0.474 ± 0.048
Scaffold attachment factor B1 D67Y, Q15424	-0.263 ± 0.13
Scaffold attachment factor B1 D73A, Q15424	-0.196 ± 0.065
